Here are results for two molecules from US11529426B2, “Methods and compositions for targeting tissue lesions” (priority 2017, dated 2022).

In assay [1] the test system is collagen-induced arthritis. The following applies: mice, reference [20]; cited from earlier work.
In assay [2] the test system is mechanically loaded mouse knee. The assay can be described thus: Mechanically loaded mouse knee, D1 2G nanosomes: cartilage damage by MabCII680 fluorescence. It counts as in vivo, C57BL/6 mice. The following applies: intraarticular 50 μL, 500 μM TPCA-1, 2 injections, two-week loading; vs PBS. The source says: Targeted nanosomes were generated from lipids and conjugated to purified D1 2G monoclonal antibody from a hybridoma isolated from mice immunized with type II collagen (MabCII). Briefly, the lipid film which contained 5.2 μmol dioleoyl-sn-glycero-3-phosphocholine (DOPC), 4.5 μmol cholesterol, 0.3 μmol 1,2-distearoyl-sn-glycero-3-phosphoethanolamine-N-[maleimide (polyethylene glycol) 2000] (DSPE-PEG-maleimide) and TPCA-1 was rehydrated with phosphate buffered saline (PBS) and sonicated. The rehydrated lipids were repeatedly extruded through a 200 nm porous membrane to generate 200 nm 1-3 walled nanosomes. The MabCII were thiolated using Traut's reagent, then mixed with the nanosomes for conjugation. After conjugation, the reaction mixture was chromatographed on a Sepharose CL-4B column to separate the free antibodies from the coupled liposomes. […]
At the completion of the two-week loading period, mice were injected retro-orbitally with 100 μL composite mixture of 50 μL of monoclonal antibody to type II collagen (MabCII680) labeled with XenoFluor 680 (XF680; Caliper) fluorescent dye and 50 μL of MMPSense-750 (Perkin-Elmer, Waltham, Mass.) a substrate that fluoresces when cleaved by MMPs. After 24 hours, the mice were anesthetized and the knee joints were optically scanned for each type of fluorescence using a Lumina XR (Perkin Elmer, Waltham, Mass.).

The subject of assay [3] is MMPs. The assay can be described thus: Mechanically loaded mouse knee (PTOA), E4 nanosomes: MMP activity by MMPSense-750 fluorescence. It counts as in vivo, C57BL/6 mice. The following applies: intravenous, 100 uM TPCA-1, 3 injections, two-week loading; vs control nanosomes. From the text:
(§1) Targeted nanosomes were generated from lipids and conjugated to purified E4-D4 (E4) monoclonal antibody to type II collagen that was developed from a hybridoma isolated from mice immunized with type II collagen. Briefly, the lipid film which contained dioleoyl-sn-glycero-3-phosphocholine (DOPC), cholesterol, 1,2-distearoyl-sn-glycero-3-phosphoethanolamine-N-[maleimide (polyethylene glycol) 2000] (DSPE-PEG-maleimide) and TPCA-1 was rehydrated with phosphate buffered saline (PBS) and sonicated. The rehydrated lipids were repeatedly extruded through a 200 nm porous membrane to generate 200 nm 1-3 walled nanosomes. The E4 MabCII was thiolated using Traut's reagent, then mixed with the nanosomes for conjugation. […] The E4 MabCII was also conjugated to the near infrared dye XenoLight CF 680 (PerkinElmer) used for the final quantitative imaging of arthritic damage. […]
(§2) At the completion of the two-week loading period, mice were injected retro-orbitally with 100 μL composite mixture of 50 μL of 1 mg/ml E4 monoclonal antibody to type II collagen MabCII680 labeled with Xenolight CF 680 fluorescent dye and 50 μL of MMPSense-750 (Perkin-Elmer, Waltham, Mass.), a substrate that fluoresces when cleaved by MMPs. After 24 hours, the mice were anesthetized and the knee joints were optically scanned for each type of fluorescence using a Lumina XR Imaging System (Perkin Elmer, Waltham, Mass.).

For assay [4], the system named is mechanically loaded mouse knee. The assay can be described thus: Mechanically loaded mouse knee (PTOA), E4 nanosomes: cartilage damage by MabCII680 fluorescence. The following applies: intravenous, 100 uM TPCA-1, 3 injections, two-week loading; vs empty nanosomes (Control). Format: in vivo, C57BL/6 mice.
From the text: as §1, §2

Assay [5] deals with exposed type II collagen in articular cartilage explants. Nature of the assay: Binding of fluorescent avidin/biotinylated reparative cells to cartilage explants pre-incubated with biotinylated antibody (IVIS imaging). Set-up: species or system domestic pigs. The following applies: for binding of fluorescent avidin/biotinylated ADSC cells to cartilage explant: biotinylated antibody 1 hr. On the procedure: Type II collagen monoclonal antibody (MabCII) at a concentration of 1 mg/mL was buffer exchanged with phosphate buffered saline (PBS). The linking reagent NHS-PEG4-Biotin (Thermo Scientific) was then brought up in distilled water to a recommended 20-fold molar excess of Biotin per mg/mL of MabCII. The biotinylated MabCII sample was then added to a Zeba spin desalting column (Thermo Scientific) column and centrifuged at 1000×g for 2 minutes in order to remove excess biotin reagent. The collected flow-through solution was the purified sample. As a control, irrelevant monoclonal mouse IgG antibody of the same subclass (Isotope Control from R&D Systems, Inc.) was similarly prepared.
The reparative cells (isolated chondrocytes or chondrogenically differentiated ADSCs) previously labeled with a fluorescent dye (Vivotrack 680: PerkinElmer, MA), were re-suspended at 1×10^6 cells/ml in fresh serum-free medium with 250 mM sucrose, 1 mM HEPES, and 1 mM CaCl2. The PE-PEG-Biotin stock solution (1 mM) was then added to the various tubes at 25 μM final concentration and incubated for 60 minutes to allow PE-PEG-Biotin integration into the cell membranes. Neutravidin was dissolved in PBS and added to the PE-PEG-Biotin labeled cells at a final concentration of […] of Neutravidin. The tubes were then allowed to incubate on a rocker platform for 30 minutes at 37° C. for binding. After incubation, the cells were centrifuged, supernatants were discarded, and serum-free medium was added and the cells vortexed ready to incubate with the cartilage explants.
Cartilage explants were harvested from the articular cartilage of femoral condyles of domestic pigs ranging from 25 to 30 kilograms and were punched from cartilage explants taken from the surface of articular cartilage with a 6 mm dermal punch to provide equivalent surface areas. The cartilage explants were divided into two groups for incubation with biotinylated Mab; one group that would be mechanically damaged and one group with no damage (normal). […]

The subject of assay [6] is type II collagen (Col2a1) expression. Nature of the assay: Type II collagen gene expression (PCR) of reparative cells bound to devitalized scratched cartilage explants. It counts as cell-based, pig. The following applies: one week. As for the experimental part: For evaluation of gene expression of the reparative cells attaching to cartilage explants with the two step MabCII, biotin-avidin system described above, cartilage explants were devitalized by freeze thawing and washed three times before incubation with biotinylated MabCII and avidin/biotinylated chondrocytes or avidin/biotinylated chondrogenically differentiated ADSC cells as described above. After washing to remove unbound cells, the cells bound to the explants were incubated for one week in complete F12K culture medium with 10% FCS. The explants were then washed and the RNA extracted with Trizol for quantitative polymerase chain reaction (PCR) for the cartilage specific-type II collagen expression. Quantitative gene expression was analyzed by PCR using primers specific for type II collagen (Col-II) and the housekeeping gene glyceraldehyde-3-phosphate dehydrogenase (GAPDH). Gene expression was calculated as 2^−ΔΔCT after normalization to GAPDH expression. For some experiments gene expression from avidin/biotinylated cells that were incubated in standard tissue culture wells or incubated with cartilage with no antibody for the same period of time were set as 1+/− standard error of the mean (SEM) and compared to same type of cells binding to the cartilage explants.

Turning to `NC(=O)Nc1sc(-c2ccc(F)cc2)cc1C(N)=O` [TPCA-1, 2-[(aminocarbonyl)amino]-5-(4-fluorophenyl)-3-thiophenecarboxamide], the “proinflammatory mediators in collagen-induced arthritis” value in assay [1] is listed as “reduce proinflammatory mediators such as TNF-α”. The “cartilage damage: binding of MabCII680, intensity in region of interest” value in assay [2] is given as “no improvement”; in assay [4], “did not show significant improvement”. For the same molecule, the “MMP activity: fluorescence of MMPSense-750” value in assay [3] was “did not show significant reduction”.

B1: MabCII: monoclonal antibody to type II collagen from E4-D4 (E4) hybridoma clone; mouse IgG2a heavy chain, kappa light chain; VH/VL SEQ ID NO: 6/14 (antibody, listed as Mus musculus, V domains shown)
VH: EVQLVESGGGLVKPGGSLKVSCEASGFTFSDYGMHWVRQAPEKGLEWVAYISSVSSTIYYADTVEGRFTISRDNVRNTLFLQMTSLRSEDTAMYYCAREGWLPLFAFWGQGTLVTVSA
VL: DIVLTQSHKFMSTSVGDRVSITCKASQDVSITVAWYQQKPGQSPKLLIYSASYRNPGVPDRFTGSGSGTDFNFTISTVQAEDLAVYYCQQYYIIPWTFGGGTKLEFKR
Consider B1, for which the “binding of isolated articular chondrocytes to cartilage explant” value in assay [5] (avidin/biotinylated chondrocytes, data not shown) was “same specificity of binding”. In addition, the “binding of fluorescent avidin/biotinylated ADSC cells to cartilage explant” value in assay [5] (damaged (scratched) cartilage) was “significant amount of reparative cells binding”; in assay [5] (normal (unscratched) articular cartilage), “not detectable”. Further, in assay [6] (articular chondrocytes on explants), the “expression of CII relative to cells maintained without cartilage in standard tissue culture” value is “equivalent”. Further, the “type II collagen (Col2a1) gene expression of targeted cells” value in assay [6] (avidin/biotinylated ADSC, FIG. 9B) was “continue to express type II collagen”; in assay [6] (avidin/biotinylated chondrocytes, FIG. 9A), “continue to express type II collagen”.
